Test system: O=C(O)C1=C[C@@H](O)[C@@H](O)[C@H](O)C1
Experiment: HPLC-UV of product, Michaelis-Menten
Format: biochemical, Cichorium intybus
Settings: acyl acceptor varied, saturating p-coumaroyl-CoA (800 μM), 50 mM phosphate pH 7.1, room temperature
From the text: HPLC-UV of product, Michaelis-Menten on HCT2 (CiHCT2)

For HCT2 (CiHCT2) (Cichorium intybus), the Km was 802 ± 63 µM, the Vmax was 18.2 µmol/min/mg and the Vmax/Km was 22800 µL/min/mg.

Source: article PMC4893494, “Identification and Characterization of Five BAHD Acyltransferases Involved in Hydroxycinnamoyl Ester Metabolism in Chicory” (Frontiers in Plant Science, 2016)
